Data published in patent US12338277.

Target: SHIVAD8EO envelope on pseudotyped virus (SHIV (HIV-1 AD8-derived env))
Test: cell-based or functional assay

3BNC117 (antibody) was tested, and the IC50, TZM-bl neutralization of SHIVAD8EO was 0.14 µg/mL.
